Test results taken from PMC4772501 (The Journal of Cell Biology, 2016).

B3: (His)6Spr3 (natural protein)
chain: MKSKGSRLSTDCPVEFPKIVSGFAEEVKIRRQSSQGQYAVDSHPPKSPELKHRRQRSSSFVNGKCRNRDLPLLDNKKAQEINTNSHGQDIGIKNLPRQRELLNAKNGIDFTLMVAGQSGLGKTTFINSLFSTSLIDDDIKENKPIIRYKSIVEGDGTHLNFNVIDTPGFGNNMDNAFTWRTMVNYIDEEIRSYIFQEEQPDRTKMVDNRVHCCLYFLRPSNKGIDTLDVVTMKKLAKRVNLIPVIAKSDLLTKEELKNFKTQVREIIRVQDIPVCFFFGDEVLNATQDIFQKYPFSIIASNEYIFNEKGEKVKGRQYKWGAVDIENEKYCDFKILQKTIFDWNLIDLVESTEDYYEKCRSEMLRTRLLKARDCLTTKSVDITEEQRKFLEEEMNFDEIEENKLKNYKCYEIINKTVMDKVATEWDPEFITRQLEAKKKFNELSNREISKFRDWKKSLFMEQENFNQEIEQLNHKLENLQLECQDLEYKLLIGKSSNSHSTDSATLVNVHIKR

What was measured:
[1] = biological target: B3; test: pull-down
[2] = biological target: the molecule itself; test: negative-stain EM, single-particle class averages
[3] = biological target: T1, Cdc3 (S. cerevisiae, UniProt P32457 1-520); test: negative-stain EM, single-particle class averages
T1 sequence: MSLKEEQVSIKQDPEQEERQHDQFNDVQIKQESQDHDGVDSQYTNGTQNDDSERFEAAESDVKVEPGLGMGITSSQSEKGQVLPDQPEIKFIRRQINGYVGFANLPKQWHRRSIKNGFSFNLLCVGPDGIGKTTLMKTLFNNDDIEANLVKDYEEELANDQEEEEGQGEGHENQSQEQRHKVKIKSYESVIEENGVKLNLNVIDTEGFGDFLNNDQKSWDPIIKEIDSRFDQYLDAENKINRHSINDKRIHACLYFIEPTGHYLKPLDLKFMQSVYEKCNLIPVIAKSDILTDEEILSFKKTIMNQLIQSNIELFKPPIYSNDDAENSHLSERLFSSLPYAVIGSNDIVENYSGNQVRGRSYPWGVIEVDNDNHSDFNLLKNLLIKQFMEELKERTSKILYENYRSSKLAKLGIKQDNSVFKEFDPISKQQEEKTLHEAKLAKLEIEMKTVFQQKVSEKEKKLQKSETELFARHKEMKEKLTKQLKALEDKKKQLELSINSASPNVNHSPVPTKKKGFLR

[4] = biological target: B3; test: negative-stain EM, single-particle class averages
[5] = biological target: T1, Cdc3; test: pull-down

B1: Cdc10 (natural protein)
chain: MDPLSSVQPASYVGFDTITNQIEHRLLKKGFQFNIMVVGQSGLGKSTLINTLFASHLIDSATGDDISALPVTKTTEMKISTHTLVEDRVRLNINVIDTPGFGDFIDNSKAWEPIVKYIKEQHSQYLRKELTAQRERFITDTRVHAILYFLQPNGKELSRLDVEALKRLTEIANVIPVIGKSDTLTLDERTEFRELIQNEFEKYNFKIYPYDSEELTDEELELNRSVRSIIPFAVVGSENEIEINGETFRGRKTRWSAINVEDINQCDFVYLREFLIRTHLQDLIETTSYIHYEGFRARQLIALKENANSRSSAHMSSNAIQR
[1]
  binding result: binds
[2]
  binding result: binds
[3]
  binding result: binds

B2: Spr28 (natural protein)
chain: MFPMKDHSALEQHTLSRDELRRRKGYKKGLQLSILLLGEKGSGKSTFLNNLCGQDISLSDGDYDDDDDKVTNNVTPENGNAIEDIDPGYKTAHLSPGLKLVTRRVYLNDELGVPITLDIILFPGCGDNVDNSQSSVVIKNYLDQQFANVLKEEVRIKRNTKETDGRPHVCLYFLKSTPRGVKKFDIELMKTICDKVNLIPIIPKADGLTETELNLHKDIVRQEISQNNIRVFDFKSDTLGETLALYDMDIDSSSAKSKYDNDTKIKEISPFAIVCSKTFNKNSENRVEHIRTYEWGSLVVEDQNTSDFIYLKAILLGSHLQELKDVTNNVLYENYRAKVLTEKKNNYDIPNYSYIDETSRGSVSNVSTRRNSASRTLGNPDTNDENAYQIHKEIDEKNRIIEDYQRKIDLLEKMLAAPHQNKV
[4]
  binding result: binds

## B3
[5]
  binding result: binds
